From patent US11370825B2, “Polypeptides, cells, and methods involving engineered CD16” (Regents of the University of Minnesota, priority 2014, dated 2022)

Key:
ADAM17 [1] = assay: Soluble CD16b released from transfected HEK293 cells, ELISA of media supernatant (shedding); assay type: cell-based, human
Protocol: (§1) FIG. 3. Effects of the engineered S197P mutation on CD16a and CD16b shedding. Transfected HEK293 (human embryonic kidney) cells separately expressed CD16b and CD16b/S197P (A) or CD16a and CD16a/S197P (B) at similar levels, as determined by flow cytometry (left panels). The different transfectants were treated with or without PMA (15 ng/ml for 30 minutes at 37° C.) and soluble levels of CD16 in the media supernatant were quantified by ELISA (right panels). Each treatment condition was repeated three times for each experiment and the data are representative of three independent experiments. Bar graphs show mean±SD. Statistical significance is indicated as ***P<0.001. (C) Transfected HEK293 cells expressed L-selectin (CD62L) or L-selectin and CD16b/S197P. Surface levels of L-selectin and CD16b/S197P on transfected and mock-transfected cells were measured using flow cytometry (histogram plots). Transfectants expressing L-selectin or L-selectin and CD16b/S197P were incubated in the presence or absence of PMA for 30 minutes at 37° C., and the mean fluorescence intensity (MFI) of L-selectin staining determined (bar graph). Each treatment condition was repeated three times for each experiment and the data are representative of two independent experiments. Bar graphs show mean±SD. Statistical significance is indicated as *P<0.05. For all histogram plots, the x-axis=Log 10 fluorescence and the y-axis=cell number.
HEK293 cells (a human embryonic kidney cell line) and NK92 cells (a human NK cell line) (ATCC, Manassas, Va.) were cultured according to the depository's instructions. HEK293 cells were transiently transfected with pcDNA3.1 with or without CD16b, CD16b/S197P, and/or L-selectin using Lipofectamine 2000 (Invitrogen, Carlsbad, Calif.) according to the manufacturer's instructions. HEK293 cells stably expressing human FcRγ were transiently transfected with pcDNA3.1 with or without CD16a or CD16a/S197P by the same approach. NK92 cells were stably transduced with pBMN-IRES-EGFP with or without CD16a or CD16a/S197P by retrovirus generation and infection procedures described previously (Matala et al., 2001, J Immunol. 167:1617-1623; Walcheck et al., 2003, J Leukoc Biol. 74:389-394; Wang et al., 2009, J Immunol. 182:2449-2457). Construct expression was assessed by EGFP fluorescence and CD16 staining, as determined by flow cytometry. Human iPSCs (UCBiPS7, derived from umbilical cord blood CD34 cells) were maintained on mouse embryonic fibroblasts (Knorr et al., 2013, Stem Cells Transl Med. 2:274-283; Ni et al., 2014, Stem Cells 32:1021-1031). Stable expression of CD16a or CD16a/S197P was performed using a Sleeping Beauty transposon system as previously described (Wilber et al., 2007, Stem Cells 25:2919-2927; Tian et al., 2009, Stem Cells 27:2675-2685). […]

ADAM17 [2] = assay: L-selectin surface down-regulation in HEK293 transfectants expressing or lacking CD16b/S197P (ADAM17 activity control); assay type: cell-based, human; settings: HEK293 cells expressing versus lacking CD16b/S197P; PMA 30 minutes at 37° C.
Protocol: as §1, with “(C) Transfected HEK293 cells expressed L-selectin (CD62L) or L-selectin and CD16b/S197P.” left out, “Each treatment condition was repeated three times for each experiment and the data are representative of two independent experiments. Bar graphs show mean±SD. Statistical significance is indicated as *P<0.05.” left out
HEK293 cells (a human embryonic kidney cell line) and NK92 cells (a human NK cell line) (ATCC, Manassas, Va.) were cultured according to the depository's instructions. […] Construct expression was assessed by EGFP fluorescence and CD16 staining, as determined by flow cytometry. […]

[3] = HEK293 transfectants treated with PMA 15 ng/ml for 30 minutes at 37° C.
[4] = untreated transfected HEK293 cells

Row | Molecule | soluble levels of CD16 in media supernatant (ADAM17 [1]; [3]) | soluble levels of CD16 in media supernatant (ADAM17 [1]; [4]) | L-selectin down-regulation following activation with PMA (ADAM17 [2])
1 | CD16b: Wild-type human IgG Fc receptor CD16b (FcγRIIIb), NA1 allelic variant, recombinant comparator (protein, listed as Homo sapiens) MWQLLLPTALLLLVSAGMRTEDLPKAVVFLEPQWYRVLEKDSVTLKCQGAYSPEDNSTQWFHNENLISSQASSYFIDAATVDDSGEYRCQTNLSTLSDPVQLEVHVGWLLLQAPRWVFKEEDPIHLRCHSWKNTALHKVTYLQNGKDRKYFHHNSDFHIPKATLKDSGSYFCRGLVGSKNVSSETVNITITQGLAVSTISSFS | increased further | High levels | 
2 | CD16b/S197P: Human CD16b (FcγRIIIb, SEQ ID NO:2, NA1 variant) with serine-197 substituted by proline; expressed in HEK293 cells (protein, listed as Homo sapiens) MWQLLLPTALLLLVSAGMRTEDLPKAVVFLEPQWYRVLEKDSVTLKCQGAYSPEDNSTQWFHNENLISSQASSYFIDAATVDDSGEYRCQTNLSTLSDPVQLEVHVGWLLLQAPRWVFKEEDPIHLRCHSWKNTALHKVTYLQNGKDRKYFHHNSDFHIPKATLKDSGSYFCRGLVGSKNVSSETVNITITQGLAVPTISSFS | markedly lower | markedly lower | similarly down-regulated
